Measured values reported in patent publication EP2586797A2.
Changes are numbered by the printed parent chain.

B1: Composite human antibody variant VH5/VK3 (antibody, human IgG1, V domains shown)
VH: QVQLVQSGAEVKKPGASVKVSCTASGFNIKDTYIHWVRQARGQRLEWIGRFDPVNVNTRYDSRFRGRVTITSDASTSTAYMELSSLRSEDTAVYYCSRSYYNGRRRFTYWGQGTLVTVSS
VL: DIVMTQSPSSLTASVGDRVTITCKASQSLLSSGNQKNYLTWYQQKPGQPPKLLIYWASIRESGVPDRFSGSGSGTDFTLTISSLQAEDVAVYYCQNDYNYPFTFGQGTKLEIK
B2: Composite human antibody variant VH1/VK3 (antibody, human IgG1, V domains shown)
VH: B1 VH with Q1E, V11L, R41P, V68A, S77N
VL: B1 VL
B3: Composite human antibody variant VH3/VK3 (antibody, human IgG1, V domains shown)
VH: B1 VH with V68A, S77N
VL: B1 VL
B4: Composite human antibody variant VH1/VK1 (antibody, V domains shown)
VH: B1 VH with Q1E, V11L, R41P, V68A, S77N
VL: B1 VL with S9D, A13V, V15L, D17E, V19A, T22N, S69T, D76F
B5: Composite human antibody variant VH2/VK3 (antibody, human IgG1, V domains shown)
VH: B1 VH with Q1E, V68A, S77N
VL: B1 VL
B6: Composite human antibody variant VH2/VK2 (antibody, human IgG1, V domains shown)
VH: B1 VH with Q1E, V68A, S77N
VL: B1 VL with S69T, D76F
B7: Composite human antibody variant VH4/VK3 (antibody, human IgG1, V domains shown)
VH: B1 VH with S77N
VL: B1 VL

Target: Abeta42 beta amyloid peptide (UniProt P05067)
Sequence (P05067 672-713 limits assumed): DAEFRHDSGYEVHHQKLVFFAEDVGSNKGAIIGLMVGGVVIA
Test: competition ELISA, NS0 supernatant titrated against 0.25 ug/ml biotinylated mouse 6E10 (mouse MDT-2007) on coated beta amyloid; IC50 normalised to mouse 6E10 (=1; <1 improved)

fold difference in IC50 relative to mouse 6E10 [fold]	Binder
1.02	B1
1.93	B2
1.57	B3
0.78	B4
0.96	B5
1.1	B6
1.36	B7
